Experimental data: PMC7781312 (bioRxiv, 2021)

Target: SARS-CoV-2 2P S ectodomain trimer (SARS-CoV-2 (YP_009724390), UniProt P0DTC2, stabilised)
Assay: BLI

B1: B6 monoclonal antibody (recombinant IgG with human constant regions) (antibody, V domains shown)
VH: EVQLQQSGPVLVKPGASVRMSCKASGYTITDYYLNWVKQSHGKSLEWLGVLNPYSGGSLYSQTFKGKATLTVDRSSSTAYLELNSLTSEDSAVYYCARQLGRGNGLDYWGQGTSVTVSS
VL: NIMMTQSPSSLAVSAGEKVTMSCKSSQSVLHSSDQKNYLAWYQQKPGQSPKLLIYWASTRESGVPDRFTGSGSGTDFTLTISSVQAEDLAVYFCHQYLSSYTFGGGTKLEIK
B1: binds.
